What was measured:
BG505 SOSIP.664 trimer = target: T1, BG505 SOSIP.664 trimer (HIV-1); test: SPR, trimer immobilized by anti-histidine capture, Biacore 3000, 25 C (FIG. 2D)
T1 construct: domain: gp120;domain: gp41 ectodomain; also called soluble BG505 SOSIP

HIV YU2 gp120 monomer = target: T2, HIV YU2 gp120 monomer (HIV-1, UniProt P35961 32-498); test: ELISA, antigen coated at 2 ug/ml
T2 construct: domain: gp120

HIV YU2 gp41 monomer = target: T3, HIV YU2 gp41 monomer (HIV-1, UniProt P35961 499-671); test: ELISA, antigen coated at 2 ug/ml
T3 construct: domain: gp41

[1] = target: T4, HIV YU2 gp160 extracellular domain (gp140) foldon trimer (HIV-1, UniProt P35961 32-671); test: ELISA, antigen coated at 2 ug/ml
T4 construct: extracellular domain; also called HIVYU2 gp140 foldon trimer; not shown: foldon trimerisation domain

Jo1 antigen = target: T5, Jo1 antigen (UniProt P12081 2-509); test: Luminex AtheNA Multi-Lyte ANA test
T5 sequence (looked up): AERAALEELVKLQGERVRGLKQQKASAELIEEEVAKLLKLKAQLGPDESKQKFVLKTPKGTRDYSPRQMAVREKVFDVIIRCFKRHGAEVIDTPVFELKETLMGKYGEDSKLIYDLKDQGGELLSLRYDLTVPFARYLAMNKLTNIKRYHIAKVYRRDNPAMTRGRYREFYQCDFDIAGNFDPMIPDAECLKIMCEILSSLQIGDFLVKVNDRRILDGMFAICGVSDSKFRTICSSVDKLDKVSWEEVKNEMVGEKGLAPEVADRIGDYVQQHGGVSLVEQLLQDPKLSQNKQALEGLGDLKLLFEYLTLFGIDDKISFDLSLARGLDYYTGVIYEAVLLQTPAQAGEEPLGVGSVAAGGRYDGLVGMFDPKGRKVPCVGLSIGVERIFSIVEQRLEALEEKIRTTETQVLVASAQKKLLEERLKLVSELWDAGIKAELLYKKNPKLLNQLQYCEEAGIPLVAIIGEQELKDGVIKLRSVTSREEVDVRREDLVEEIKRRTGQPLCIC

centromere B = target: T6, centromere B (UniProt P07199 2-599); test: Luminex AtheNA Multi-Lyte ANA test
T6 construct: also called CentrB
T6 sequence (looked up): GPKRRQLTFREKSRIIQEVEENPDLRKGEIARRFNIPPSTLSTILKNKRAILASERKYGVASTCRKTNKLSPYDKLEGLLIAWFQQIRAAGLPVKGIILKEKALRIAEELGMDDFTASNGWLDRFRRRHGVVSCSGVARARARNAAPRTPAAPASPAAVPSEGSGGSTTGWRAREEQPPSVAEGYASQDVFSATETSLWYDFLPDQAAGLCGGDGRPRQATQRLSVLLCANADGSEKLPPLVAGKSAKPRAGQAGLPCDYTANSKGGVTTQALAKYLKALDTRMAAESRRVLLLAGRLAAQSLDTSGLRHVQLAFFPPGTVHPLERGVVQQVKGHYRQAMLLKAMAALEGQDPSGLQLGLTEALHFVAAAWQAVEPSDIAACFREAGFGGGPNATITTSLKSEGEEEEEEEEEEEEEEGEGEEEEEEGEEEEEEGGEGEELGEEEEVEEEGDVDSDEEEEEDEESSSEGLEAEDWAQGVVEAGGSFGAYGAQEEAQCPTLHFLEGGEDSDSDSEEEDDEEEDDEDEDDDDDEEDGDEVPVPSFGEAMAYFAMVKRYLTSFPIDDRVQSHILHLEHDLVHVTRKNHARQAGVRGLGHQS

[2] = target: T7, Sjogren syndrome antigen B (UniProt P05455 1-408); test: Luminex AtheNA Multi-Lyte ANA test
T7 construct: also called SSB; SS-B/La
T7 sequence (looked up): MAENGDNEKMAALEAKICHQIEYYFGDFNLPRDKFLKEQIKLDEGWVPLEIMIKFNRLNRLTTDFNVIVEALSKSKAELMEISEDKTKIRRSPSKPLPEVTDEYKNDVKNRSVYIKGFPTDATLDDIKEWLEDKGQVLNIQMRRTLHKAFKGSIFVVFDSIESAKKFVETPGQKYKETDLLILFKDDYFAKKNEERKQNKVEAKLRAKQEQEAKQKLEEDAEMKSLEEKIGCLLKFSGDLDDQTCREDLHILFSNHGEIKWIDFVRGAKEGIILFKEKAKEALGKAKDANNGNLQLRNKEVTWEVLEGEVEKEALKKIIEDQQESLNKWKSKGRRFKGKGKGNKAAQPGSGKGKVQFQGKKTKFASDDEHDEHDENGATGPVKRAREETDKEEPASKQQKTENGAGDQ

scleroderma 70 = target: T8, scleroderma 70 (UniProt P11387 2-765); test: Luminex AtheNA Multi-Lyte ANA test
T8 construct: also called Scl 70
T8 sequence (looked up): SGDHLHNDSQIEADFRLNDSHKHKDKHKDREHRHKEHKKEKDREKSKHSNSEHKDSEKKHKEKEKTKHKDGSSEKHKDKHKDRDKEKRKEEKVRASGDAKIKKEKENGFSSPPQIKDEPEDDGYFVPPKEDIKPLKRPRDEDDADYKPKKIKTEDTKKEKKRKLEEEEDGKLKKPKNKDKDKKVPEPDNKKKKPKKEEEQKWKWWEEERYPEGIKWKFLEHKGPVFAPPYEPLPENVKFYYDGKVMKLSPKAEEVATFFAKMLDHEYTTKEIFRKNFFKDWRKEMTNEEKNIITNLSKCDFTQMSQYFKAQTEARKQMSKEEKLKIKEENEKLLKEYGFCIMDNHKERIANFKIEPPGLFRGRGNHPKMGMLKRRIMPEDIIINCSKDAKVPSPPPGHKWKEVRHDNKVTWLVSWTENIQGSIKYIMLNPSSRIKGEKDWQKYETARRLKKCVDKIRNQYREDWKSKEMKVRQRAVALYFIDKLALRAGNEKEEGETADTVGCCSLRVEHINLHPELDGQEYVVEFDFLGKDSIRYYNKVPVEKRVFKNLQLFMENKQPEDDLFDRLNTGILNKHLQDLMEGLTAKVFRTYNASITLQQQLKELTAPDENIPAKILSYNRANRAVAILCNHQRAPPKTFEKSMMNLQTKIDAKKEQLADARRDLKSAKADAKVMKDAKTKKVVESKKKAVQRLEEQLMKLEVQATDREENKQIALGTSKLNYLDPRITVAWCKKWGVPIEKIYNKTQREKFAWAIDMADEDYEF

B1: 35022 antibody (antibody, V domains shown)
VH: QGQLVQSGAELKKPGASVKISCKTSGYRFNFYHINWIRQTAGRGPEWMGWISPYSGDKNLAPAFQDRVIMTTDTEVPVTSFTSTGAAYMEIRNLKFDDTGTYFCAKGLLRDGSSTWLPYLWGQGTLLTVSS
VL: QSVLTQSASVSGSLGQSVTISCTGPNSVCCSHKSISWYQWPPGRAPTLIIYEDNERAPGISPRFSGYKSYWSAYLTISDLRPEDETTYYCCSYTHNSGCVFGTGTKVSVL
notes: also called 35022 mAb
In the case of B1, the Kd (BG505 SOSIP.664 trimer) is reported as 5.6 nM, the binding result (HIV YU2 gp120 monomer) is reported as “no binding” and the binding result (HIV YU2 gp41 monomer) is reported as “no binding”. B1: no binding [1]; no binding (Jo1 antigen); no binding (centromere B). B1: no binding [2]; no binding (scleroderma 70).

Source: patent WO2015103549A1 (dated 2015)
